Source: paper doi:10.1101/2024.05.21.594841 (bioRxiv, 2024)
Like-named read-outs stand apart in the source and are kept apart here.

T1: Scj1p (S. cerevisiae, UniProt P25303 22-377)
T1 sequence: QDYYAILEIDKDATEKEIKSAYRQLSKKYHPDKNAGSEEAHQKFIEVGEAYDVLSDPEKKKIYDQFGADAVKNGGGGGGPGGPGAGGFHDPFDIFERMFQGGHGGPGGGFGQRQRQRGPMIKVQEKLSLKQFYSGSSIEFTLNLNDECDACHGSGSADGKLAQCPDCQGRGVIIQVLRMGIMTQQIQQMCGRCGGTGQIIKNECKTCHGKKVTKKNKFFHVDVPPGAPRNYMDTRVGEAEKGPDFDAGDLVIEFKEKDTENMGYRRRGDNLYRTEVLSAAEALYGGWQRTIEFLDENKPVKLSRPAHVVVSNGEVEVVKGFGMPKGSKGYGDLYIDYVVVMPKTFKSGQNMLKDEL

T2: Sil1p (S. cerevisiae, UniProt Q08199 20-421)
T2 sequence: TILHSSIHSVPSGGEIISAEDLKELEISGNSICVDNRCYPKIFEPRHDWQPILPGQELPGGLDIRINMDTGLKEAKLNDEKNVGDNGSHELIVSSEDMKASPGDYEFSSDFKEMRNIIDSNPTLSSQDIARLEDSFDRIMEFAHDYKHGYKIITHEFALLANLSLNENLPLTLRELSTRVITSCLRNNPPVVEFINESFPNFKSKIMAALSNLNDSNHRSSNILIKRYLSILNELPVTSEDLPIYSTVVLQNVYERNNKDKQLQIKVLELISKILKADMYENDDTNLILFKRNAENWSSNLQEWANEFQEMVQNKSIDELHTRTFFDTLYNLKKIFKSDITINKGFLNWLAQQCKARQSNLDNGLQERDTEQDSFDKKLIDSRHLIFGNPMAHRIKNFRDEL

T3: Mpd1p (S. cerevisiae, UniProt Q12404 22-318)
T3 sequence: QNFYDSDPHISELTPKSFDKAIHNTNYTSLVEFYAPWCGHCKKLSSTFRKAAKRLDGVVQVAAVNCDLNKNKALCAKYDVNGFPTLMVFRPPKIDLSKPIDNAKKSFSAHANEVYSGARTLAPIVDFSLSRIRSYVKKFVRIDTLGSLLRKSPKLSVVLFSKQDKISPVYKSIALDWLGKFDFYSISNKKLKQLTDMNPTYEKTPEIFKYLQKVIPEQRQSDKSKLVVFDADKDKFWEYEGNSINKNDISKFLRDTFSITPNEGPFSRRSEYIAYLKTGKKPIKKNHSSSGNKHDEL

T4: Yos9p (S. cerevisiae, UniProt Q99220 22-542)
T4 sequence: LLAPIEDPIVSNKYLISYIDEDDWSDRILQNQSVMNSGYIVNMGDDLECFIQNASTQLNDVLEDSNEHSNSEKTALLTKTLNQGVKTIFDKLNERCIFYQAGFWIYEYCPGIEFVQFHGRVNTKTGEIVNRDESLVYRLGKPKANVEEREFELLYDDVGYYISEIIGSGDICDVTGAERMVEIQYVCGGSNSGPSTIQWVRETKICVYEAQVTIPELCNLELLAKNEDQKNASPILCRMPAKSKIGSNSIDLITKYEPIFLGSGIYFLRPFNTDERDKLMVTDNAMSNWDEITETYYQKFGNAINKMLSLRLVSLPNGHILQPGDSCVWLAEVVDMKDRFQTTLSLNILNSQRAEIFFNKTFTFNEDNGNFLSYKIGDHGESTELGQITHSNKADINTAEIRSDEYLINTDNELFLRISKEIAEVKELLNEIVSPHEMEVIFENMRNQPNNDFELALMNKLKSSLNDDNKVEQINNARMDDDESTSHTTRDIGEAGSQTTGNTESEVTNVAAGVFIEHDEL

T5: Lto1p (yeast, UniProt P53846 1-162)
T5 sequence: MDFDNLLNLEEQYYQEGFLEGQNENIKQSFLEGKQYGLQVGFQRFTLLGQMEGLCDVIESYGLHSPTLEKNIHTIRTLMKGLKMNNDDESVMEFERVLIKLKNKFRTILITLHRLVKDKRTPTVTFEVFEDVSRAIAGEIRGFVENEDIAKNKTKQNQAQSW

B1: Sed4p (natural protein)
chain: MSGNSANYDVGYPIYGAKFINEGTLLVAGGGGQFNSSFPNKITALKVNFQKKKHIRRFREITLDSIDDAPTSLDCNNNLILVGCNELFNDSSMENVNHHLRKFVFEQEHLKFVASIDFNRTTDPSVFTKFVYINQRATVAAIASSEVPTVIRIIDPRNLTENYEIETGREVNDLHFAPNGILLSYITSNSLEVASVRDGNFVARKTDFDKNLVLSNIRFLNDNTLLVAASLSNSDGVSLLKLGVSSKGVKILKTASFMFDLNGITSMDVSPNKKFVALSSNDNLVAIVSVEKLKLVQLVPRVHESTITKVTFSPDSRYLASTSMGNTINVLKLSGTSSSILRNIWKFFLNFVLLVVLAGAIQLGYKHNVHGFIYKHAHDIYKSKFKENTTIDQGSSSYFTINDDYRGITESADIISATDVASDIETEFSSFDTSTMRTTTEDEQKFVWISSSADSQFTSADIPTSASSSSSSSSSSFYEESVTNEPIVSSPTSEITKPLASPTEPNIVEKPSLPLNSESIDLLSSSSNSITEYPEPTPDLEEKLSSLIVEQSESEITTDRESVSKLLSTESPSLSHMPSSSSSSLSLSSSLTTSPTTALSTSTATAVTTTQTNPTNDAANTSFLDNSKPASTREIYKTKIITEVITKIEYRNIPASDSNAEAEQYVTTSSSMLLTPTDTMVSSPVSEIDPIASELERMVETPTHSISIASEFDSVASNLIPNEEILSTSASQDSISSHPSTFSDSSITSGFQSIEVSTVTSSVLASESIPSISDSTFSKFHSISEPVSSAIVETATSSFSKTETKTSRVIAFSTEDSERSSALIDNSEYTSVLADNLEPTSVLADNSEPTSVLADSSEPTSVFTDAVQSPKTSVGQSSLSESTNIEGTSMASMIFSSSGASIGALSDIGKGTLSVESASSTVAQPMPGVTTTAPSFVSSPHKISASSIDASGFVQKEIMIEVQSSKDSSEAFGVRHKISENVNTPVSRMLTTEMQASGTVDVTEDVSLSSEVISALNVEITSLPNPVAPPQTIAAPLNNNSNTNIVNDDNAVAGTVNYAGLHDEL
B2: Eug1p (natural protein)
chain: TPGSDLLVLTEKKFKSFIESHPLVLVEFFAPWCLHSQILRPHLEEAASILKEHNVPVVQIDCEANSMVCLQQTINTYPTLKIFKNGRIFDGQVYRGVKITDEITQYMIQLYEASVIYLNSEDEIQPYLENATLPVVINRGLTGLNETYQEVALDLAEDYVFLSLLDSEDKSLSIHLPNTTEPILFDGNVDSLVGNSVALTQWLKVVILPYFTDIEPDLFPKYISSNLPLAYFFYTSEEELEDYTDLFTQLGKENRGQINFIALNSTMFPHHVRFLNMREQFPLFAIHNMINNLKYGLPQLPEEEYAKLEKPQPLDRDMIVQLVKDYREGTAKPIVKSEEIPKEQKSNVYKIVGKTHDDIVHDDDKDVLVKYYATWCIHSKRFAPIYEEIANVLASDESVRDKILIAEVDSGANDILSFPVTGYPTIALYPAGNNSKPIIFNKIRNLEDVFEFIKESGTHHIDGQAIYDKLHQAKDSEVSTEDTVHDEL
B3: Sec20p (natural protein)
chain: MVVTFLQDLEVLQDALLNNLQKLSAISRRKESGESKHDNKDSFAAIANEHNDEEEEIEFEDLVNIIESKVSDFESVLKCSIVEMTYKYPELKLQWEKSPRYDQCDKLHIVKLDKQMNEDIYAQLVEELDFVLQFVDWFYCYRLKVKEILRQHHKRDLAWNDEKRDRAIKFHAVDYDKLHQGTSSSSSLTSTSMEKASTREKLLSKTKQLTNNLVRGNQILQSGILQSDLNLDELRAQTNSLTQIDDKYTQFETVFKKTADLVKVLENASHQEKRDVYLSLGFLLCCVSWVLWRRIFKLPVKLGLWLLFKFFKGILVTLGLVKSYAGSSSSLQAPSLVLNAPILATTTTSSATSVEPFASVSAVSSIQRAVDEAVDRIVSHDEL
B4: Kar2p (natural protein)
chain: not shown
B5: Yae1p (natural protein)
chain: MSNTWDDVWASDSDVETERSPDLVKLRENHSKRGYLDGIVSSKEEKLQEGFNDGFPTGAKLGKQVGIIMGILLGLRTRFGDEDEDLSKAYIDAQKELRINKVLSKSIFDPNFDLQEKHPLITKWTDIANTYCEKYHVPSIQ
B6: Pdi1p (natural protein)
chain: PEDSAVVKLATDSFNEYIQSHDLVLAEFFAPWCGHCKNMAPEYVKAAETLVEKNITLAQIDCTENQDLCMEHNIPGFPSLKIFKNSDVNNSIDYEGPRTAEAIVQFMIKQSQPAVAVVADLPAYLANETFVTPVIVQSGKIDADFNATFYSMANKHFNDYDFVSAENADDDFKLSIYLPSAMDEPVVYNGKKADIADADVFEKWLQVEALPYFGEIDGSVFAQYVESGLPLGYLFYNDEEELEEYKPLFTELAKKNRGLMNFVSIDARKFGRHAGNLNMKEQFPLFAIHDMTEDLKYGLPQLSEEAFDELSDKIVLESKAIESLVKDFLKGDASPIVKSQEIFENQDSSVFQLVGKNHDEIVNDPKKDVLVLYYAPWCGHCKRLAPTYQELADTYANATSDVLIAKLDHTENDVRGVVIEGYPTIVLYPGGKKSESVVYQGSRSLDSLFDFIKENGHFDVDGKALYEEAQEKAAEEADADAELADEEDAIHDEL

What was measured:
Assay in all cases: split reporter
Kar2p [1] = target: B4
Scj1p = target: T1, Scj1p
Sil1p = target: T2, Sil1p
Kar2p [2] = target: B4; remark: listed apart in the source
Cpr5p [3] = target: T6, Cpr5p (S. cerevisiae, UniProt P35176 23-225)
Cpr5p [4] = target: T6, Cpr5p; remark: listed apart in the source
Mpd1p [5] = target: T3, Mpd1p
Yos9p = target: T4, Yos9p
Mpd1p [6] = target: T3, Mpd1p; remark: listed apart in the source
Lto1p = target: T5, Lto1p

T6 sequence (P35176 23-225): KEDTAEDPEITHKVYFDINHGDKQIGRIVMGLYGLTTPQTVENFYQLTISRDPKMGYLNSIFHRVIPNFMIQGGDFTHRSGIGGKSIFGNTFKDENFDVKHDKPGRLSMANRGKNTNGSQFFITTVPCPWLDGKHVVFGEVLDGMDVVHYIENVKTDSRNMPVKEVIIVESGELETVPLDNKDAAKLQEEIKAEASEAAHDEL
Sequence of Kar2p (P16474 43-682): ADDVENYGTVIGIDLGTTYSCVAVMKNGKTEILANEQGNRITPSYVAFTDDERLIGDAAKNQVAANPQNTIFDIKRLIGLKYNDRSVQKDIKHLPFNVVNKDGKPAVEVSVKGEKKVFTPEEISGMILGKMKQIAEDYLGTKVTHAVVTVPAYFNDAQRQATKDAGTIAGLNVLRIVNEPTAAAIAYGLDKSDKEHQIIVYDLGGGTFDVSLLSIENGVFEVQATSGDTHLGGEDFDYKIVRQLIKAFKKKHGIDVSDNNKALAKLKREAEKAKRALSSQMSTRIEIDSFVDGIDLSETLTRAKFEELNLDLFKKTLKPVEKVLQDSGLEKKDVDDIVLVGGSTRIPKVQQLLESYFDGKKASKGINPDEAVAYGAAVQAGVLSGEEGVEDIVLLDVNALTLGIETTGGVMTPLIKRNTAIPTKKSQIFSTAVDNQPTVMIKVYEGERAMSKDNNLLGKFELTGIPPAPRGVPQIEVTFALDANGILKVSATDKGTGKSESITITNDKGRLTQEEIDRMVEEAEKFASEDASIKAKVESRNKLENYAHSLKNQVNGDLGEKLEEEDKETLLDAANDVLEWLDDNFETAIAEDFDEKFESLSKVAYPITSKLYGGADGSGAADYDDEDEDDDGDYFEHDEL

Row | normalized interacting score (Scj1p) [%] | normalized interacting score (Sil1p) [%] | normalized interacting score (Cpr5p [3]) [%] | normalized interacting score (Cpr5p [4]) [%] | Binder | other results
1 |  |  |  |  | B1 | normalized interacting score (Kar2p [1]): 34%
2 | 5 |  |  |  | B2 | 
3 |  | 32 | 26 |  | B3 | normalized interacting score (Kar2p [2]): 42%
4 | 10 | 35 | 78 | 31 | B4 | normalized interacting score (Mpd1p [5]): 65%; normalized interacting score (Yos9p): 20%; normalized interacting score (Mpd1p [6]): 86%
5 |  |  |  |  | B5 | normalized interacting score (Lto1p): 96%
6 |  |  | 32 | 18 | B6 | 
